# In the DeepSol protein solubility set:
# Test: soluble on expression in E. coli; label from the status in PepcDB or PDB records
row,Sequence,soluble on expression in E. coli
1,MSLVVGTDAHKYSHTFVATDEVGRQLGEKTVKATTAGHATAIMWAREQFGLELIWGIEDCRNMSARLERDLLAAGQQVVRVPTKLMAQTRKSARSRGKSDPIDALAVARAVLRETDLPLATHDETSRELKLLTDRRDVLVAQRTSAINRLRWLVHELDPERAPAARSLDAAKHQQALRTWLDTQPGLVAELARAELTDIIRLTGEINTLAQRISARVHQVAPALLEIPGCAELTAAKIVGEAAGVTRFKSEAAFACHAAVAPIPVWSGNTAGQMRLSRSGNRQLNAALHRIALTQIRMTDSRGQAYYQRLQDAGKTKRAALRCLKRRLARTVFQALRTVHQPSSEHTQPAAACHRSYCSSHLGEPPRLTDMTQKTRIQPLPPKRAGLLIRALYRIAKRRFGEVPEPFTVTAHHRRLLIANVVHEALLQRASRKLPPSVRELAVFWTARSIGCSWCVDFGAMLQRLDGLDVDRLTDIDNYATSSKFSDDERAAIAYAEAMTADPHSVTDEQVADLRARFGEAGVIELTYQIGVENMRARMNSALGITEQGFNSGDACRVPWAAPDVPSAESREGHHHHHH,not soluble
2,SMQAARLAKALRELGQTGWYWGSMTVNEAKEKLKEAPEGTFLIRDSSHSDYLLTISVKTSAGPTNLRIEYQDGKFRLDSIICVKSKLKQFDSVVHLIDYYVQMCKDKRTGPEAPRNGTVHLYLTKPLYTSAPSLQHLCRLTINKCTGAIWGLPLPTRLKDYLEEYKFQV,soluble
3,MGSDKIHHHHHHMDFHTGKWLCKQYNLNSFTKVSLLHGGENQTYMFESDKNKFVVRQYREGRYTAEQIEAEIHWLIAIQKQMLVPEVVVNKDGDWVTPVMKDEGSIQYFVVFRFINGNEIIEPKDKDYEKLGSFMRMFHEKTNGVLKSVPQTWRGYERPIYSEKKMIHEPLQCLLNTSFLSYEDKNKCLRIAERIQELTNSIQLREKQFVHGDMHFGNILVDKEDWYLLDFDECGFGYKEFDIGVPRLHLIASGQLEDAWGNFMMGYGENISESAIRLGAASRIFYMAGKIPLRLDIEPIKKNPDHFIRRYIQYAEEELCGETIV,not soluble
4,MKQDVILVLDCGATNVRAIAVDRQGKIVARASTANASDIAAENSAWHQWSLDAILQRFADCCRSLSSALSECVVRGITVTTFGVDGALVDAQGKLLYPVISWKCPRTAAVMETIERFISPRQLQTLSGVGAFSFNTLYKLVWLKENHPRLLEQAHCWLFISSLINHRLTGEFTTDITMAGTSQLLDIHQRDFSPEILQATGLARRLFPRIVEAGAPIGTLQTDAARLLGLPAGVPVISAGHDTQFALFGAGAQQGEPVLSSGTWEILMVRSGQVDTSLLSQYPGSTCELDSQSGLYNPGMQWLASGVLEWVRKLLWTPETPWQTLIDEARAIPAGAEGVRMQCDLLACQNAGWQGVTLNTTRGHFYRAALEGLTAQLQRNLRTLEKIGHFNATELLLVGGGSRNALWNQIKANQLDIPIKVLDDAETTVAGAAMFGWYGVGEFSSPEQARAQVNYQYRYFWPQTEPEIIEGV,not soluble
5,SNAYSIALIIPSLFEKACAHFLPSFQQALNKAGYQLLLGYSDYSIEQEEKLLSTFLESRPAGVVLFGSEHSQRTHQLLEASNTPVLEIAELSSKASYLNIGVDHFEVGKACTRHLIEQGFKNVGFIGARGNHSTLQRQLHGWQSAMIENYLTPDHFLTTHEAPSSQLGAEGLAKLLLRDSSLNALVCSHEEIAIGALFECHRRVLKVPTDIAIICLEGSSMGEHAYPSLTSAEFDYERMGTKAAEKLLHAIKGEPEERPTSMGFKLKRRASTAIN,soluble
6,VRQLDSDGFAALMESIPHAISVHDRERNLVFSNPACAALIGYDTAEFADLEHEQLFHPDDAELWGTMLARVLGTESTSATAHLRIRHREGHWIWVRVAASTFTAGAERLVALVLQDESDTIWGNPTAARQPIR,not soluble
7,MAASLRLLGAASGLRYWSRRLRPAAGSFAAVCSRSVASKTPVGFIGLGNMGNPMAKNLMKHGYPLIIYDVFPDACKEFQDAGEQVVSSPADVAEKADRIITMLPTSINAIEAYSGANGILKKVKKGSLLIDSSTIDPAVSKELAKEVEKMGAVFMDAPVSGGVGAARSGNLTFMVGGVEDEFAAAQELLGCMGSNVVYCGAVGTGQAAKICNNMLLAISMIGTAEAMNLGIRLGLDPKLLAKILNMSSGRCWSSDTYNPVPGVMDGVPSANNYQGGFGTTLMAKDLGLAQDSATSTKSPILLGSLAHQIYRMMCAKGYSKKDFSSVFQFLREEETF,soluble
8,MSLNKNIKSLNLREKDPFLSREKQRYEHPLPSREWIIELLERKGVPSKIESLARELSITEDEYVFFERRLKAMARDGQVLINRRGAVCAADKLDLVKCRVEAHKDGFGFAVPLTPAKDGDFVLYERQMRGIMHGDIVTVRPAGMDRRGRREGTVLDIVERAQSKVVGRFYMDRGVAILEPEDKRLNQSIVLEPDGVARFKPESGQVIVGEIEVYPEQNRPAVAKIIEVLGDYADSGMEIEIAVRKHHLPHQFSEACAKAAKKIPVHVRKSDLKGRVDLRDLPLVTIDGETARDFDDAVFAEKVGRNYRLVVAIADVSHYVRPDDVIDADAQERSTSVYFPRRVIPMLPENLSNGICSLNPDVERLCMVCDMVVTYAGNIKEYRFYPAVMRSHARLTYNQVWKWISDGIDHPYKAQIDTLYKLFKILQKKRFERGAVEFESVETQMIFDDNGKIEKIVPVVRNDAHKLIEECMLAANVCAADFLLKNKHTALFRNHLGPTPEKLATLREQLGLLGLQLGGGDNPSPKDYAALVEQFKGRPDAELLQVMMLRSMQQAVYEPHCDGHFGLAYEAYAHFTSPIRRYPDLTVHRAIKAVLNQQTYTPKKSWQALGVHTSFCERRADDASRDVENWLKTYYMRDKVGEVFEGKISGMTSFGIFVTLDGIHIDGLVHISDLGEDYFNFRPEIMAIEGERSGIRFNMGDRVAVRVARADLDDGKIDFVLIAGGSGRGRKVKSSASAKPAGTAGKGKPKTAAEKKTARGGKVRGRGASAAAESRKKAKKPVPIKVKKRKGKSEGHHHHHH,not soluble
9,SGPLRDKVVIFIYWRENDLSIYLDLSGEPISRHGYRLNPWKAPMAETLAAGVIITSEWNPTTPFINPMCGSGTLAIEAALIGTHKIPGLVREDYAFQHIHGYVAETWKTMREMAQQKVLPALPFKIIASDHDQRALDAAKVNAEKAGVDHLIDFVLSDFQDTPVEENQAGVVILNPEYGERLGDEESLVLTYKEIGDFFKQKCGGYKGFVFTGNLELAKRIGLKPKRKIKFFSAKIECRLMQYELYSGTKRVVFKTE,not soluble
10,MSNRNLRSSTNSDLAEGQHQTPSSDSSGHGEDQPQASPGPNKKSHTPKKNISKGAVLHEKPMTVMVLTATEPFNYKEGKENMFHATVATESQYYRVKVFNMDLKEKFTENKFITISKYFNSSGILEINETATVSEAAPNQMFEVPKNIIRSAKETLKISKIKELDSGTLIYGVFAVEKKKVNDKSITFKIKDNEDNIKVVWDKEQHNINYEKGDKLQLFSFHLRKGNGKPILHSGNHSFIKGEKLLKESFEGDGYHKGPKQVVALKATKLFTYDSIKSKKMFHATVATDTEFFRVMVFEENLEKKFIPGNTIALSDYFGMYGSLAIHEYSSVSEVKSQNKEDSSSSDERPIEHLKICDLHLQTKERLVDGEFKVYRKSSGNNCICYGIWDDTGAMKVVVSGQLTSVNCEIGNTIRLVCFELTSNADEWFLRATRYSYMEVIMPEK,soluble
11,FPEKVKSLTLIDSFGFICAPEEQMTDQLRRGLLSRMKSANTTRSFTEETAVKARLHVSDLTVEHAKLIVKRSLIEIEPKSMDTVGVDSASILYRWRSDPRLRSVSPYRLSLKQGQQLFSDIKCPLQLIYGDKGMKMVVTGLKNFSSGVNSLQTTKLSGGHHVHMEKAEELLPILHHFFSEI,not soluble
12,GMMYTNDNRIVMTLDAGGTNFVFSAIQGGKEIADPVVLPACADCLDKCLGNLVEGFKAIQAGLPEAPVAISFAFPGPADYQAGIIGDLPNFPSFRGGVALGPFLEDIFGIPVFINNDGSLFAYGEALTGVLPEINRRLREAGSTKRYKNLLGVTLGTGFGAGVVIDGELLRGDNAAGGYVWCLRNKKYPEYIVEESVSIRAVMRVYAERSGDAGARTPKEIFEIAEGIRPGNREAAIAAFEELGEMAGDALASAITLIDGLIVIGGGLSGASKYILPVLLKEMNAQTGMMDGARFGRLQKEVYDLDEEKSFAGFARGEAVEVLVPGTNRKVGYDPCKRIGVTFSKQGANRSIAMGAYVFALNHLSK,soluble
13,MSLRITTLEELLEALDELFDDGSDLTRRGAQDPWERVFSQPGHPLASDLPDACLVDWTRQGLLPSGDGLTALDLGCGLGRNARWLARQGYAVTGLDLSPYAVGQARERTPGPDIRYLEGDVLRDPIPGGPFDVVYDSGCFHHLPPHRRLSYLHTLGQVLRPGGWFGLCTFAWGRMGSAKSDLELLRQGQLEGGVGYTLDDLREMFGGLDFVTGSLLSELEPASEPVFQMDFLQAALFRREGHHHHHH,soluble
14,MGEYERTVFTRRITGVETEYGITCVGDNSRRRLGADEAARYMFRPVVEEWGSSNVFIPNGARLYLDVGSHPEYASAECDSLSQLIAYDRAGDKIVDQLAQRAETALATEGIGGRVYLFKNNLDSLGNSYGCHENYLVSRDVVLKTLGRQLLPFLITRQLICGAGSIQDGQFQVSQRADHVWEGVSSATTRSRPIINTRDEPHADSHRFRRLHVIVGDSNMSETTCALKIGSTQLVLEMIEAGALSHDLELSNEIAAIREISRDITGMAPVPLKAGTSMPAIEIQRRYAEKALCWLEQRGDTEGTPNAEMHKVVSLWLDTISAIESNDLQALSRDIDWAIKLSLLRRAQRRIGCSESDFTHPKLAQLDLAYHDIRAGRGVFPVLESKQLVNRWINDTDIEQATRIAPSTTRAALRGEFLTAAKKLQAPISADWLRLKVNRPEPQIIELTDPFENTDDRVDQLISYMRNHAASYSTDTAIS,not soluble
15,MGDSAPARIDTLEIKLLFAGDIMTHGPQIESAKCEGGRVYDFSSSFDTLASRIGAADLAIGNLETTFAGAPYSGYPTFSSPDAMGEALKNAGFDVLTTANNHTADKGKKGIIRTLDMLDSLGIAHTGSYRDIFDRDKMTPLILEVKGVRIAILAYTYGTNGMPVPAPTWVDPIDTVMIKKDLLRADSLGADYRIVQIHWGIEYRKEPDSEQLELARKLHRYGADAIIGSHPHVVQGSQWLKSDSKTSFVIYSMGNFISNQRKPAATRGGMLLSLTLRKVGDRITTHPDYQYVFVNKRTPQGKRVYRLLPVDPFSSDTLPSLPPEEQRDYKEFAKYYQMIPLVLIEREDNRIRNRLQVSQRAFLEHHHHHH,not soluble
16,MGSDKIHHHHHHMETQQLLSIYPQATISPRPSVAKNMVCVAIDAGKYICIDTTNLSNRELSLLELLTHTKSNATTGDAWSEFLTGRHTTAPQTTAKKLQILQFRVHFTERHADRSQWLSAIADTFEHVLHRAFITADSGYLLLTESLTDTSADLASLLALIDNDFYTNTHLFIGSTHRSSQDLPTTFALEQQLFSQNQQDTIVTLSSSLLPFLVNQHQPELQALRNSLSLDSDNKQLIRALYHTQGNVRQAASKLFLHRNTLLYRIEKFERCNGLNLKNMDDLVYCYLLTLGQVINQVEK,not soluble
17,MESFQNLAKKPTLKKQIIEQAFDLKCENCGRKYDYYKFDDGSEFKHGCDCEMIEYAKQSTENYHKRNRRRKAERIFKQSIMNEDLTKATFDNYNPTNEQLVYAKNLCERYANNFTLDNKQSLLIQGSFGTGKSHLSMSIVKSVKAKGYTVLYMNVPQLISTIKNTYNNQTAMTEQELAQIISDVDLMVFDDYGINMNEFATSKMFELIESRIGKHNIFTTNLDEKEMTKNKDLQRIFSRIMSNTTLIKMDGQDYRTRGLKLLEHHHHHH,soluble
18,MSAATKKRYITNKVGSEFYELVDEDIIAQVRQSRGNNLHEVLDQNGDSYVVSMPTKFRKSVWLRRDQFVVVRPITEGDKVKGEIEYILDQDNVLYIRELGKWPTCFEENALKMTREAKRGQTSDKMIDDDMLPPSESEEEDESEGEETYDEDDVDDEEEEEFDTYNPNRMQAPSK,not soluble
